Biological target: T1, human CCL8 (residues Gln-24 to Pro-99), expressed in E. coli (human), P80075
T1 chain: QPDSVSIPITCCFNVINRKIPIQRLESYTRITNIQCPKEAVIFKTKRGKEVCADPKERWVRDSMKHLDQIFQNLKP
Experiment: native MS; CCL8 alone in 200 mM ammonium acetate pH 6.5; modified Q Exactive, capillary voltage 1.2 kV, source temperature 100 °C
Conditions: remark: other sources report otherwise

stoichiometry N: 2
B1: human CCL8 (residues Gln-24 to Pro-99), expressed in E. coli, P80075 24-99 (ligand)
chain: T1 chain

— article PMC5912465
